Source: the DeepSol protein solubility set

Assay: soluble on expression in E. coli; label from the status in PepcDB or PDB records

Sequence	soluble on expression in E. coli
MSFFTKEQQPKENCPPITVEKARQLFEFNTNHLSLSDYHHQTVLKTSKQLVAQHLMPNATDNLSQHFLMNYKANNNYLGFQASIVDFFTDSAVANFSSSYVYESQEKIIRLPKPTKISTALSTCIIKRRSHRQFSDRQMPLQDLSNILYYACGVSSQASIRDGASDKITLRNCASGGGLYPIHLVFYARNISKLIDGFYEYLPYQHALRCYRHSSEENVRDFAEYGAINAENCNIIIIYVYHYMKNTRKYGNQATAYAFIESGEIAQNIQLTATALTYGSIDIGGYNKEYLQELLDLDGLGEHVIHMTLVGTKESQ	not soluble
MHKPCVIIPVFDHELAVPDVVKAVRAAGLPCVLVDDASSPACAAVLRQLAQGDEIYLVCLPVNQGKGGAVMAGFREAARLGFSHALQVDADGQHDLSDIPVFLEQSRQCPEALICGYPQYDESVPKGRLYARYLTHVWVWINTLSLQIRDSMCGFRLYPLAPVLVLIDAVRIGKRMDFDSEILVRLAWRGQAMRWLPTRVHYPQDGLSHFRLFHDNALISTMHAKLFFGMLMRLPLILWRRWRSLEHHHHHH	not soluble
MNQEKLDLRKSAADDTHSGAAFAFQALTPDLILDAIESLGVYPETGLLALNSYENRVYQFRSDEGQRYVVKFYRPDRWSDAQIQEEHDFALALAEQEIPMAVPTAVQGHTLHHFQGFRFALFPSIGGRAFEVDNLEQLEFVGRFIGRMHQYGAQSVFQAREPLNPQILGDEPLAWLKQSELVPTSLRVAFFTVVEQVLAKVNTLWAQQRFKPIRLHGDLHPGNILWTPDGPGFVDLDDARMGPAIQDLWMMLTGDRAQQQLQLEVLLEAYEEFCEFDTRQLALIEPLRALRMVHYNAWIGRRWQDPAFPMHFPWFGDEKYWEQQILAFKEQLAALDEPPLSLIPY	not soluble
MELWGRMLWALLSGPGRRGSTRGWAFSSWQPQPPLAGLSSAIELVSHWTGVFEKRGIPEARESSEYIVAHVLGAKTFQSLRPALWTQPLTSQQLQCIRELSSRRLQRMPVQYILGEWDFQGLSLRMVPPVFIPRPETEELVEWVLEEVAQRSHAVGSPGSPLILEVGCGSGAISLSLLSQLPQSRVIAVDKREAAISLTHENAQRLRLQDRIWIIHLDMTSERSWTHLPWGPMDLIVSNPPYVFHQDMEQLAPEIRSYEDPAALDGGEEGMDIITHILALAPRLLKDSGSIFLEVDPRHPELVSSWLQSRPDLYLNLVAVRRDFCGRPRFLHIRRSGP	soluble
MSLARSTPAIVILGQGSLDTARQIQRLYPDSLIHGLAERVEGADRVYHEFGATLRQLYQQDTPIIALCAAGIVIRTLAPLLLEKGAEPPVLAVAEDGSAVVPLLGGLGGVNVMAREIAAGLGVAAAITTSGELRFGTCLLNPPSGYALGDLELGKRFVSDLLGGESVRIEGAAPWLAAAKLPENDQARLTIRVGSAEREPVANELLIYPRSVLVACRGQRLAGEADSDLATHIRQALHQARIAVQSVACLLAADRDMADRALHQAAAQLGVPLRFLPAADSVAELAQQAVPQLLPPLKVGEDIAIAVASQPLDPEQIGRPRGRLAVIGLGPGAAELMVPAVKAELARANDILGYETYVRMAGPFRADQVMHCTDNREEMQRARHAFELAAQGRSVVVVSSGDPGVFAMAAAVIEALHESSDPAWHSVDLEILPGVSASLATAAQAGAPLGHDFCVLSLSDNLKPWDIIEKRLDLASQADLALAFYNPISRSRPWQLGRALEIVRQHRTPQTPVVLGRDIGRPGQTLRVITLGELTPEQVDMRTMVLVGSSTTCVFPRAGGGDWVYTPRWYGNKEGHHHHHH	soluble
MANFTAADVKRLRELTGAGMLACKNALAETDGDFDKAVEALRIKGAKDVGKRAERATAEGLVAAKDGALIELNCETDFVAKNAEFQTLADQVVAAAAAAKPADVDALKGASIGDKTVEQAIAELSAKIGEKLELRRVAIFDGTVEAYLHRRSADLPPAVGVLVEYRGDDAAAAHAVALQIAALRARYLSRDDVPEDIVASERRIAEETARAEGKPEQALPKIVEGRLNGFFKDAVLLEQASVSDNKKTVKALLDVAGVTVTRFVRFEVGQA	not soluble
MLSKNLLEALNDQMNHEYFAAHAYMAMAAYCDKESYEGFANFFIQQAKEERFHGQKIYNYINDRGAHAEFRAVSAPKIDFSSILETFKDSLSQEQEVTRRFYNLSEIARQDKDYATISFLNWFLDEQVEEESMFETHINYLTRIGDDSNALYLYEKELGARTFDEE	not soluble
MGSSHHHHHHSSGLVPRGSTSEVIEDEKQFYSKAKTYWKQIPPTVDGMLGGYGHISSIDINSSRKFLQRFLREGPNKTGTSCALDCGAGIGRITKRLLLPLFREVDMVDITEDFLVQAKTYLGEEGKRVRNYFCCGLQDFTPEPDSYDVIWIQWVIGHLTDQHLAEFLRRCKGSLRPNGIIVIKDNMAQEGVILDDVDSSVCRDLDVVRRIICSAGLSLLAEERQENLPDEIYHVYSFALR	soluble
MSLAKTVEEINQKIREGNVVVVTAAEMKDIVEELGPEKAAKEVDVVTTGTFGAMCSSGAFFNFGHADPPIKMQRVWMNDVEAYTGIAAVDAYLGVTQLSESVEEYGGSHVIEELVKGREVELKATAYGTDCYPRKEIVTEVSLEDVNQAVMVNPRNAYQRYNAATNSSNKLLRTYMGTLLPNFGNVTFAGTGEISPLNNDPEYRTIGIGTRIFLCGAKGYVIGEGTQHAPPYGTLMVKGNLKEMKPEYMKAAYFPGYGATLFVGIGIPIPILDAEMAKFTAVRNSEIETKILDFGVARRDRPVVRKVTYEELISGRVEINGEEVRVSPLSSFYMAEKIMKELKRQIERGEFLLTAPVDRIPTKEVFKPMRQREVKVVKSVMVEAYTISPETAIEEAARIMMDKGINHIPVVEEGRLVGIITSWDIAKAVARNRKGAVKSIMTRNVIYTHPDEPVEVAARKMEQNNISALPVVDSRKRVLGIVTSEDLSKLIAREGHHHHHH	soluble
MKVIIDGEVRTLKAAWYEDGEVKLIDQRELPDKIKIFSAKNSDDIAYAIKNMVVRGAPAIGVTAAYGLAMASKNGEDMNKAKEKIRATRPTAYDLFKAIRYMEVNGYDMNAARRYAMEIEGRSKKIGELGNELIRNGAKILTHCNAGALAVLDWGTALSPMRIAHNEGKNIFVFVDETRPRLQGAKLTAWELAQEGIDHAIIADNAAGFYMRRKEIDLVIVGADRIASNGDFANKIGTYEKAVLAKVNGIPFYVAAPGSTFDFSIRSGDEIPIEERDENEVLEINGIRIGPNESHSKNPAFDVTPNEYVTGFITEYGIFKPNELNKLKDLMDKDLFMNIK	not soluble
MLLVSGCSGELYSSHTHSLRWFCQSPEGCEREAEVKALARVLLYTDTFTLYTDYGQFAVDFVQRVPSDELPRECDALYGLSLFGHELESSTLCSVGGDAYEMRISVPNRNPSSASEWLAEMRPL	not soluble
RTRKGIELIPLDQVIYFIADHKYVTLRHEGGEVLLDEPLKALEDEFGDRFVRIHRNALVARKRIESMKRTPVGHFELFLRGLNGDALIVSRRHVAGVRKMMQQL	not soluble
MNAERCEFIAGNSLIEVIPSISDDRPIHLISGDIGPFEAGVPCRIPVWTAILMKRKHNCKVVAPQWMDVDELKKILTSETESQGLAKLPDHFFEISHMLVRDAREDIFEVEAVKSLVQDIYDRRDAKLRSSAIEFLRQNQTCHAQLDNVQLIEASSARATLEACRQMGAVVRNKHESTPL	not soluble
MSLLGAAESTLEFYDLSHPWGHGAPAWPYFEDVQIERLHGMAKSRVLTQKITTVMHSGTHIDAPAHVVEGTPFLDEIPLSAFFGTGVVVSIPKGKWGMVTAEDLQNATPDIRPGDIVVVNTGWHHKYADSAEYYAYSPGFDKKAGEWFAAKGVKAVGTDTQALDHPLATAIAPHSPAEAQGGLLPWAVREYEAQTGRKVLDDFPDWEPCHRAILSQGIYGFENVGGDLDKVTGKRVTFAAFPWRWVGGDGCIVRLVAIVDPTGSYRIETGKAVEGHHHHHH	soluble
MGSDKIHHHHHHMQVLVVDYTAKDAAEKFVQSLHETGFAVLVNHPIKQSLVESIYKNWQEFFLSEEKHAFAFDPVKQDGYFSSEISETAKGHSKKDIKEYFHVYPWGRIPAQLNDEIFEYYRLASELAAELLDWVEEYSPADIADKYSETLSNMIKETPNTLLRILHYPPLTGNEEAGAVRAASHEDINLLTILPAANEPGLQVQRQNGEWIDVPSDFGNLIINIGDMLQETSAGYFPSTSHRVINPTGKGSDKSRISLPLFLHPRSEVVLSDKHTQASYLLERLRELGVKV	not soluble
MGGSHHHHHHGMASLAPGSSRVELFKRQSSKVPFEKDGKVTERVVHSFRLPALVNVDGVMVAIADARYETSFANSLIDTVAKYSVDDGETWETQIAIKNSRASSVSRVVDPTVIVKGNKLYVLVGSYNSSRSYWTSHGDARDWDILLAVGEVTKSTAGGKITASIKWGSPVSLKEFFPAEMEGMHTNQFLGGAGVAIVASNGNLVYPVQVTNKKKQVFSKIFYSEDEGKTWKFGKGRSAFGCSEPVALEWEGKLIINTRVDYRRRLVYESSDMGNTWLEAVGTLSRVWGPSPKSNQPGSQSSFTAVTIEGMRVMLFTHPLNFKGRWLRDRLNLWLTDNQRIYNVGQVSIGDENSAYSSVLYKDDKLYCLHEINSNEVYSLVFARLVGELRIIKSVLQSWKNWDSHLSSICTPADPAASSSERGCGPAVTTVGLVGFLSHSATKTEWEDAYRCVNASTANAERVPNGLKFAGVGGGALWPVSQQGQNQRYHFANHAFTLVASVTIHEVPKGASPLLGASLDSSGGKKLLGLSYDKRHQWQPIYGSTPVTPTGSWEMGKRYHVVLTMANKIGSVYIDGEPLEGSGQTVVPDERTPDISHFYVGGYKRSGMPTDSRVTVNNVLLYNRQLNAEEIRTLFLSQDLIGTEAHMD	soluble
MSKAEFQKFHDEMKALKNAGKHDEFAKKFAAKDAVFIGPLHDPCTADEAAKLAQSDKMAALVKADFDVKIDEVTQIGDVVVERCSISAKLPTGDKNGWSLTVWVKEGGAWKIRNSCITFKAPIPQ	not soluble
SMSKRTFSTVLPQIDTTGQLFVQTRKGQEVLIKVKHFMKQHILPAEKEVTEFYVQNENSVDKWGKPLVIDKLKEMAKVEGLWNLFLPAVSGLSHVDYALIAEETGKCFFAPDVFNCQAPDTGNMEVLHLYGSEEQKKQWLEPLLQGNITSCFCMTEPDVASSDATNIECSIQRDEDSYVINGKKWWSSGAGNPKCKIAIVLGRTQNTSLSRHKQHSMILVPMNTPGVKIIRPLSVFGYTDNFHGGHFEIHFNQVRVPATNLILGEGRGFEISQGRLGPGRIHHCMRTVGLAERALQIMCERATQRIAFKKKLYAHEVVAHWIAESRIAIEKIRLLTLKAAHSMDTLGSAGAKKEIAMIKVAAPRAVSKIVDWAIQVCGGAGVSQDYPLANMYAITRVLRLADGPDEVHLSAIATMELRDQAKRLTAKI	soluble
MGSDKIHHHHHHMEVLYRKYRPKTFSEVVNQDHVKKAIIGAIQKNSVAHGYIFAGPRGTGKTTLARILAKSLNCENRKGVEPCNSCRACREIDEGTFMDVIELDAASNRGIDEIRRIRDAVGYRPMEGKYKVYIIDEVHMLTKEAFNALLKTLEEPPSHVVFVLATTNLEKVPPTIISRCQVFEFRNIPDELIEKRLQEVAEAEGIEIDREALSFIAKRASGGLRDALTMLEQVWKFSEGKIDLETVHRALGLIPIQVVRDYVNAIFSGDVKRVFTVLDDVYYSGKDYEVLIQEAVEDLVEDLERERGVYQVSANDIVQVSRQLLNLLREIKFAEEKRLVCKVGSAYIATRFSTTNVQENDVREKNDNSNVQQKEEKKETVKAKEEKQEDSEFEKRFKELMEELKEKGDLSIFVALSLSEVQFDGEKVIISFDSSKAMHYELMKKKLPELENIFSRKLGKKVEVELRLMGKEETIEKVSQKILRLFEQEG	not soluble
MKYQLTALEARVIGCLLEKQVTTPEQYPLSVNGVVTACNQKTNREPVMNLSESEVQEQLDNLVKRHYLRTVSGFGNRVTKYEQRFCNSEFGDLKLSAAEVALITTLLLRGAQTPGELRSRAARMYEFSDMAEVESTLEQLANREDGPFVVRLAREPGKRENRYMHLFSGEVEDQPAVTDMSNAVDGDLQARVEALEIEVAELKQRLDSLLAHLGD	soluble
